B1: Semaphorin-4C (Mus musculus), Q64151 (parent)
chain: MAPHWAVWLLAAGLWGLGIGAEMWWNLVPRKTVSSGELVTVVRRFSQTGIQDFLTLTLTEHSGLLYVGAREALFAFSVEALELQGAISWEAPAEKKIECTQKGKSNQTECFNFIRFLQPYNSSHLYVCGTYAFQPKCTYINMLTFTLDRAEFEDGKGKCPYDPAKGHTGLLVDGELYSATLNNFLGTEPVILRYMGTHHSIKTEYLAFWLNEPHFVGSAFVPESVGSFTGDDDKIYFFFSERAVEYDCYSEQVVARVARVCKGDMGGARTLQKKWTTFLKARLVCSAPDWKVYFNQLKAVHTLRGASWHNTTFFGVFQARWGDMDLSAVCEYQLEQIQQVFEGPYKEYSEQAQKWARYTDPVPSPRPGSCINNWHRDNGYTSSLELPDNTLNFIKKHPLMEDQVKPRLGRPLLVKKNTNFTHVVADRVPGLDGATYTVLFIGTGDGWLLKAVSLGPWIHMVEELQVFDQEPVESLVLSQSKKVLFAGSRSQLVQLSLADCTKYRFCVDCVLARDPYCAWNVNTSRCVATTSGRSGSFLVQHVANLDTSKMCNQYGIKKVRSIPKNITVVSGTDLVLPCHLSSNLAHAHWTFGSQDLPAEQPGSFLYDTGLQALVVMAAQSRHSGPYRCYSEEQGTRLAAESYLVAVVAGSSVTLEARAPLENLGLVWLAVVALGAVCLVLLLLVLSLRRRLREELEKGAKASERTLVYPLELPKEPASPPFRPGPETDEKLWDPVGYYYSDGSLKIVPGHARCQPGGGPPSPPPGIPGQPLPSPTRLHLGGGRNSNANGYVRLQLGGEDRGGSGHPLPELADELRRKLQQRQPLPDSNPEESSV
partner: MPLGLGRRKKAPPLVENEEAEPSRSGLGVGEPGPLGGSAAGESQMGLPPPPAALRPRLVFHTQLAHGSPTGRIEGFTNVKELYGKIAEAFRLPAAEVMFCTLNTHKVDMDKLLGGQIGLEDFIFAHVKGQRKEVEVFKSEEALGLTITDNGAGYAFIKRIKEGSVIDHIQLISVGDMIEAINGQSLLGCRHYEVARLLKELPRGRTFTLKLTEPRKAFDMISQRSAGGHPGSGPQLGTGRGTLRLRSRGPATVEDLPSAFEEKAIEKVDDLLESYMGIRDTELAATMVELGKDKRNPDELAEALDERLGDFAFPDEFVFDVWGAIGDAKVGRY

Variants of: B1
Details: with gipc1_mouse Gipc1, Q9Z0G0

Row | effect of a mutation on the interaction | Variant
1 | disrupting interaction | S832A
2 | disrupting interaction | S832D

From IntAct's records for PubMed 10318831
